The test has as its target FcγRIIIa receptor immobilised on the TSKgel FcR-IIIA-NPR column (UniProt P08637). The test is described as follows: FcγRIIIa affinity chromatography; FcγRIIIa immobilised on a TSKgel FcR-IIIA-NPR column (4.6 x 75 mm); antibody injected (20 µL); 0.05 M sodium citrate, 0.150 M NaCl, 10 min at pH 6.5, then linear gradient to pH 4.5 in 40 min; 0.375 mL/min; 20°C; UV 280 nm; eluting peaks collected and their glycoforms assigned by HILIC-MS.
Sequence of UniProt P08637 (P08637 17-208): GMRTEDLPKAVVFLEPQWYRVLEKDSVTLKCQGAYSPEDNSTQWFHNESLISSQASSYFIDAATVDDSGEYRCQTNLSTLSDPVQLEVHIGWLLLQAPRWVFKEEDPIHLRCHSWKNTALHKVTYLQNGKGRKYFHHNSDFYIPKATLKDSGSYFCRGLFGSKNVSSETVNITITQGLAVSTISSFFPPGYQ

Substance “commercial rituximab (MabThera) produced in CHO cells (antibody)” gave an RT (min) on the FcγRIIIa column, peak #1 (G0F 74%, G1F 25%) of 22.9 min; an RT (min) on the FcγRIIIa column, peak #2 (G0F 43%, G1F 43%, G2F 14%) of 28.2 min; an RT (min) on the FcγRIIIa column, peak #3 (G1F 72%, G2F 28%) of 33.2 min.
In the case of “rituximab produced in glycoengineered ΔXF N. benthamiana plants (antibody)”, the RT (min) on the FcγRIIIa column, peak #1 (G0 100%) came out at 30.5 min.
In turn, “rituximab produced in wild-type N. benthamiana agroinfiltrated in the presence of the kifunensine mannosidase I inhibitor (antibody)” registered an RT (min) on the FcγRIIIa column, peak #1 (Man8 14%, Man9 86%) of 24.9 min.
Consider “rituximab produced in wild-type N. benthamiana, G0 glycoform (antibody)”, for which the RT (min) on the FcγRIIIa column, peak #1 (G0 100%) was determined as 30.3 min.

For the origin of these results see paper PMC12246787.
